Laboratory results: US20200131230A1 (published 2020)
Where two headings read alike, the source gives them in different places. Positions of bridges follow the written chain, without caps; N, C: chain ends. Non-standard residues stand in square brackets, D forms with d. 2Nal = N[C@@H](Cc1ccc2ccccc2c1)C(=O)O; Nle = CCCC[C@H](N)C(=O)O; 4CF = not defined here; DCF = not defined here; HF = not defined here

How the values were obtained:
[1] = target: T1, Thrombospondin human platelet (Calbiochem, 605225) (human, UniProt P07996 19-1170); assay: cell-based or functional assay
[2] = target: T1, Thrombospondin human platelet …; assay: cell-based or functional assay; remark: listed apart in the source

T1 sequence (P07996 19-1170 limits assumed): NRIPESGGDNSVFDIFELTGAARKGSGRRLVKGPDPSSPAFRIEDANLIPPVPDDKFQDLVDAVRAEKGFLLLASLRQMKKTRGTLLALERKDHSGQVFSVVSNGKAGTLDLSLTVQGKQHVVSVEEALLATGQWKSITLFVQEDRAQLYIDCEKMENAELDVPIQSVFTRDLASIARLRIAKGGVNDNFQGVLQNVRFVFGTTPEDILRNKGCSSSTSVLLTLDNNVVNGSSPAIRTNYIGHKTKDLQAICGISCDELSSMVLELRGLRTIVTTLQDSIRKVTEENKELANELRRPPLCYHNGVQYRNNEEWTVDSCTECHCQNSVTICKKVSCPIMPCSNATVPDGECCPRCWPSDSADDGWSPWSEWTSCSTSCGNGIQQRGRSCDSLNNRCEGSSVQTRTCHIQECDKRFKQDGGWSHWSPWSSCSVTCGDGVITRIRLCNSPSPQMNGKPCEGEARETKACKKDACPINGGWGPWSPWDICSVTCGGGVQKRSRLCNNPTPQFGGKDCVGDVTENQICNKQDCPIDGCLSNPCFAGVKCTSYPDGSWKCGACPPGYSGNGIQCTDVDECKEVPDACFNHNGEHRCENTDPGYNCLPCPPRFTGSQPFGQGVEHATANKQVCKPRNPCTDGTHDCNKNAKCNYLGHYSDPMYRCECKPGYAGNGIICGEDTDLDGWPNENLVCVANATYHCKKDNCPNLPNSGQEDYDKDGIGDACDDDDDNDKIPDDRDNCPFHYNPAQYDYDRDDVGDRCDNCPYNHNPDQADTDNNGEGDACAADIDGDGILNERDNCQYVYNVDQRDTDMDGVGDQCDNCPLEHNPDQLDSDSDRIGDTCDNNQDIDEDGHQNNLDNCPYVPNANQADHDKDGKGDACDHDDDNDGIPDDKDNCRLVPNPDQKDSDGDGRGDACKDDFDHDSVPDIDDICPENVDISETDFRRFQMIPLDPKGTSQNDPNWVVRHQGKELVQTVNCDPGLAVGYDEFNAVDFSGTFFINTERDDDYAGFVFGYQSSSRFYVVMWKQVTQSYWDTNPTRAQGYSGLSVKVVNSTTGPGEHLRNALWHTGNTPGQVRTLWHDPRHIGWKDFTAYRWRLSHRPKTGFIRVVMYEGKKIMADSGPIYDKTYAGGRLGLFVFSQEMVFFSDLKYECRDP

B1: Compound 21 (peptide)
peptide: {CH2CO}-FISGKNWMRWVC-NH2
modifications: thioether N-12
SMILES: CC[C@H](C)[C@@H]1NC(=O)[C@H](Cc2ccccc2)NC(=O)CSC[C@@H](C(N)=O)NC(=O)[C@H](C(C)C)NC(=O)[C@H](Cc2c[nH]c3ccccc23)NC(=O)[C@H](CCCNC(=N)N)NC(=O)[C@H](CCSC)NC(=O)[C@H](Cc2c[nH]c3ccccc23)NC(=O)[C@H](CC(N)=O)NC(=O)[C@H](CCCCN)NC(=O)CNC(=O)[C@H](CO)NC1=O
[1]
  Cell adhesion IC50: 21.3 nM

B2: Compound 36 (peptide)
peptide: {CH2CO}-[2Nal]ISGRNWVK[6CW]VC-NH2
modifications: thioether N-12
[2]
  Cell adhesion IC50: 17.2 nM

B3: Compound 22 (peptide)
peptide: {CH2CO}-WISGKTWVRWVC-NH2
modifications: thioether N-12
SMILES: CC[C@H](C)[C@@H]1NC(=O)[C@H](Cc2c[nH]c3ccccc23)NC(=O)CSC[C@@H](C(N)=O)NC(=O)[C@H](C(C)C)NC(=O)[C@H](Cc2c[nH]c3ccccc23)NC(=O)[C@H](CCCNC(=N)N)NC(=O)[C@H](C(C)C)NC(=O)[C@H](Cc2c[nH]c3ccccc23)NC(=O)[C@H]([C@@H](C)O)NC(=O)[C@H](CCCCN)NC(=O)CNC(=O)[C@H](CO)NC1=O
[1]
  Cell adhesion IC50: 20.3 nM

B4: Compound 8 (peptide)
peptide: {CH2CO}-FRSGRNWVRWVC-NH2
modifications: thioether N-12
SMILES: CC(C)[C@@H]1NC(=O)[C@H](Cc2c[nH]c3ccccc23)NC(=O)[C@H](CCCNC(=N)N)NC(=O)[C@H](C(C)C)NC(=O)[C@H](Cc2c[nH]c3ccccc23)NC(=O)[C@H](CC(N)=O)NC(=O)[C@H](CCCNC(=N)N)NC(=O)CNC(=O)[C@H](CO)NC(=O)[C@H](CCCNC(=N)N)NC(=O)[C@H](Cc2ccccc2)NC(=O)CSC[C@@H](C(N)=O)NC1=O
[1]
  Cell adhesion IC50: 33.4 nM

B5: Compound 31 (peptide)
peptide: {CH2CO}-[2Nal][4CF]SGRNWVKWVC-NH2
modifications: thioether N-12; reading uncertain
[2]
  Cell adhesion IC50: 32.5 nM

B6: Compound 17 (peptide)
peptide: {CH2CO}-FITGKNWVKWVC-NH2
modifications: thioether N-12
SMILES: CC[C@H](C)[C@@H]1NC(=O)[C@H](Cc2ccccc2)NC(=O)CSC[C@@H](C(N)=O)NC(=O)[C@H](C(C)C)NC(=O)[C@H](Cc2c[nH]c3ccccc23)NC(=O)[C@H](CCCCN)NC(=O)[C@H](C(C)C)NC(=O)[C@H](Cc2c[nH]c3ccccc23)NC(=O)[C@H](CC(N)=O)NC(=O)[C@H](CCCCN)NC(=O)CNC(=O)[C@H]([C@@H](C)O)NC1=O
[1]
  Cell adhesion IC50: 17.7 nM

B7: Compound 32 (peptide)
peptide: {CH2CO}-[2Nal][HF]SGRNWVKWVC-NH2
modifications: thioether N-12; reading uncertain
[2]
  Cell adhesion IC50: 25.9 nM

B8: Compound 37 (peptide)
peptide: {CH2CO}-[2Nal]ISGRNWVKW[HF]C-NH2
modifications: thioether N-12; reading uncertain
[2]
  Cell adhesion IC50: 19.6 nM

B9: Compound 38 (peptide)
peptide: {CH2CO}-[2Nal]ISGRNW[Nle]KWVC-NH2
modifications: thioether N-12
SMILES: CCCC[C@@H]1NC(=O)[C@H](Cc2c[nH]c3ccccc23)NC(=O)[C@H](CC(N)=O)NC(=O)[C@H](CCCNC(=N)N)NC(=O)CNC(=O)[C@H](CO)NC(=O)[C@H]([C@@H](C)CC)NC(=O)[C@H](Cc2ccc3ccccc3c2)NC(=O)CSC[C@@H](C(N)=O)NC(=O)[C@H](C(C)C)NC(=O)[C@H](Cc2c[nH]c3ccccc23)NC(=O)[C@H](CCCCN)NC1=O
[2]
  Cell adhesion IC50: 9.2 nM

B10: Compound 26 (peptide)
peptide: {CH2CO}-FISGRNW[Nle]KWVC-NH2
modifications: thioether N-12
SMILES: CCCC[C@@H]1NC(=O)[C@H](Cc2c[nH]c3ccccc23)NC(=O)[C@H](CC(N)=O)NC(=O)[C@H](CCCNC(=N)N)NC(=O)CNC(=O)[C@H](CO)NC(=O)[C@H]([C@@H](C)CC)NC(=O)[C@H](Cc2ccccc2)NC(=O)CSC[C@@H](C(N)=O)NC(=O)[C@H](C(C)C)NC(=O)[C@H](Cc2c[nH]c3ccccc23)NC(=O)[C@H](CCCCN)NC1=O
[2]
  Cell adhesion IC50: 7 nM

B11: Compound 23 (peptide)
peptide: {CH2CO}-WISGRTWVKWVC-NH2
modifications: thioether N-12
SMILES: CC[C@H](C)[C@@H]1NC(=O)[C@H](Cc2c[nH]c3ccccc23)NC(=O)CSC[C@@H](C(N)=O)NC(=O)[C@H](C(C)C)NC(=O)[C@H](Cc2c[nH]c3ccccc23)NC(=O)[C@H](CCCCN)NC(=O)[C@H](C(C)C)NC(=O)[C@H](Cc2c[nH]c3ccccc23)NC(=O)[C@H]([C@@H](C)O)NC(=O)[C@H](CCCNC(=N)N)NC(=O)CNC(=O)[C@H](CO)NC1=O
[1]
  Cell adhesion IC50: 15.6 nM

B12: Compound 27 (peptide)
peptide: {CH2CO}-[2Nal]FSGRNWVKWVC-NH2
modifications: thioether N-12
SMILES: CC(C)[C@@H]1NC(=O)[C@H](Cc2c[nH]c3ccccc23)NC(=O)[C@H](CCCCN)NC(=O)[C@H](C(C)C)NC(=O)[C@H](Cc2c[nH]c3ccccc23)NC(=O)[C@H](CC(N)=O)NC(=O)[C@H](CCCNC(=N)N)NC(=O)CNC(=O)[C@H](CO)NC(=O)[C@H](Cc2ccccc2)NC(=O)[C@H](Cc2ccc3ccccc3c2)NC(=O)CSC[C@@H](C(N)=O)NC1=O
[2]
  Cell adhesion IC50: 32.8 nM

B13: Compound 35 (peptide)
peptide: {CH2CO}-[2Nal]ISGRN[6CW]VKWVC-NH2
modifications: thioether N-12
[2]
  Cell adhesion IC50: 26 nM

B14: Compound 20 (peptide)
peptide: {CH2CO}-WISGKTWVKWVC-NH2
modifications: thioether N-12
SMILES: CC[C@H](C)[C@@H]1NC(=O)[C@H](Cc2c[nH]c3ccccc23)NC(=O)CSC[C@@H](C(N)=O)NC(=O)[C@H](C(C)C)NC(=O)[C@H](Cc2c[nH]c3ccccc23)NC(=O)[C@H](CCCCN)NC(=O)[C@H](C(C)C)NC(=O)[C@H](Cc2c[nH]c3ccccc23)NC(=O)[C@H]([C@@H](C)O)NC(=O)[C@H](CCCCN)NC(=O)CNC(=O)[C@H](CO)NC1=O
[1]
  Cell adhesion IC50: 13.1 nM

B15: Compound 29 (peptide)
peptide: {CH2CO}-[2Nal]ISGRNWVK[2Nal]VC-NH2
modifications: thioether N-12
SMILES: CC[C@H](C)[C@@H]1NC(=O)[C@H](Cc2ccc3ccccc3c2)NC(=O)CSC[C@@H](C(N)=O)NC(=O)[C@H](C(C)C)NC(=O)[C@H](Cc2ccc3ccccc3c2)NC(=O)[C@H](CCCCN)NC(=O)[C@H](C(C)C)NC(=O)[C@H](Cc2c[nH]c3ccccc23)NC(=O)[C@H](CC(N)=O)NC(=O)[C@H](CCCNC(=N)N)NC(=O)CNC(=O)[C@H](CO)NC1=O
[2]
  Cell adhesion IC50: 17.6 nM

B16: Compound 25 (peptide)
peptide: {CH2CO}-[4CF]ISGRNWVKWVC-NH2
modifications: thioether N-12; reading uncertain
[1]
  Cell adhesion IC50: 7.9 nM

B17: Compound 19 (peptide)
peptide: {CH2CO}-FISGKNWMKWVC-NH2
modifications: thioether N-12
SMILES: CC[C@H](C)[C@@H]1NC(=O)[C@H](Cc2ccccc2)NC(=O)CSC[C@@H](C(N)=O)NC(=O)[C@H](C(C)C)NC(=O)[C@H](Cc2c[nH]c3ccccc23)NC(=O)[C@H](CCCCN)NC(=O)[C@H](CCSC)NC(=O)[C@H](Cc2c[nH]c3ccccc23)NC(=O)[C@H](CC(N)=O)NC(=O)[C@H](CCCCN)NC(=O)CNC(=O)[C@H](CO)NC1=O
[1]
  Cell adhesion IC50: 14.1 nM

B18: Compound 18 (peptide)
peptide: {CH2CO}-FISGKTWVKWVC-NH2
modifications: thioether N-12
SMILES: CC[C@H](C)[C@@H]1NC(=O)[C@H](Cc2ccccc2)NC(=O)CSC[C@@H](C(N)=O)NC(=O)[C@H](C(C)C)NC(=O)[C@H](Cc2c[nH]c3ccccc23)NC(=O)[C@H](CCCCN)NC(=O)[C@H](C(C)C)NC(=O)[C@H](Cc2c[nH]c3ccccc23)NC(=O)[C@H]([C@@H](C)O)NC(=O)[C@H](CCCCN)NC(=O)CNC(=O)[C@H](CO)NC1=O
[1]
  Cell adhesion IC50: 13 nM

B19: Compound 16 (peptide)
peptide: {CH2CO}-WISGKNWVKWVC-NH2
modifications: thioether N-12
SMILES: CC[C@H](C)[C@@H]1NC(=O)[C@H](Cc2c[nH]c3ccccc23)NC(=O)CSC[C@@H](C(N)=O)NC(=O)[C@H](C(C)C)NC(=O)[C@H](Cc2c[nH]c3ccccc23)NC(=O)[C@H](CCCCN)NC(=O)[C@H](C(C)C)NC(=O)[C@H](Cc2c[nH]c3ccccc23)NC(=O)[C@H](CC(N)=O)NC(=O)[C@H](CCCCN)NC(=O)CNC(=O)[C@H](CO)NC1=O
[1]
  Cell adhesion IC50: 21 nM

B20: Compound 33 (peptide)
peptide: {CH2CO}-[2Nal]WSGRNWVKWVC-NH2
modifications: thioether N-12
SMILES: CC(C)[C@@H]1NC(=O)[C@H](Cc2c[nH]c3ccccc23)NC(=O)[C@H](CCCCN)NC(=O)[C@H](C(C)C)NC(=O)[C@H](Cc2c[nH]c3ccccc23)NC(=O)[C@H](CC(N)=O)NC(=O)[C@H](CCCNC(=N)N)NC(=O)CNC(=O)[C@H](CO)NC(=O)[C@H](Cc2c[nH]c3ccccc23)NC(=O)[C@H](Cc2ccc3ccccc3c2)NC(=O)CSC[C@@H](C(N)=O)NC1=O
[2]
  Cell adhesion IC50: 20.7 nM

B21: Compound 34 (peptide)
peptide: {CH2CO}-[DCF][2Nal]SGRNWVKWVC-NH2
modifications: thioether N-12; reading uncertain
[2]
  Cell adhesion IC50: 28.1 nM
